1 substance from US20160089418A1 can be followed below.

The target of one test is human IFN-beta (human) (UniProt P01574). Nature of the test: cell-based or functional assay.
For test [1], the target named is recombinant human IFN-alpha (human). As to the kind of experiment: cell-based or functional assay.

Sequence of UniProt P01574 (P01574 22-187 limits assumed): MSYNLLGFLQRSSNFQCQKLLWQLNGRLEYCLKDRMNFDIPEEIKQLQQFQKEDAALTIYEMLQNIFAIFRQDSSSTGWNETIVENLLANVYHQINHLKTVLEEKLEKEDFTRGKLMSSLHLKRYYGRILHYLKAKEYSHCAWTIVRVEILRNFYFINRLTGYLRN

Regarding “Vaccinia virus B19 IFN-binding protein (full length protein) (from UniProt P25213 20-351)”, the percent neutralization of IFN at a 1:400 dilution of the medium with human IFN-beta (human) was greater than 50%; in test [1] it was greater than 80%.
